Measurements as given in patent publication US20080166806A1, “Attenuated Effector Ligand” (priority 2007, published 2008).

B1: FasL (protein, UniProt P48023 130-281, looked up)
Tumor necrosis factor ligand …: QIGHPSPPPEKKELRKVAHLTGKSNSRSMPLEWEDTYGIVLLSGVKYKKGGLVINETGLYFVYSKVYFRGQSCNNLPLSHKVYMRNSKYPQDLVMMEGKMMSYCTTGQMWARSSYLGAVFNLTSADHLYVNVSELSLVNFEESQTFFGLYKL
notes: wild-type FasL ligand used as comparator
B2: conjugate: mutated FasL (P206R) conjugated to mouse monoclonal anti-CD20 antibody with SMCC (conjugate, UniProt P48023 130-281, looked up, variant P206R)
Tumor necrosis factor ligand …: QIGHPSPPPEKKELRKVAHLTGKSNSRSMPLEWEDTYGIVLLSGVKYKKGGLVINETGLYFVYSKVYFRGQSCNNLRLSHKVYMRNSKYPQDLVMMEGKMMSYCTTGQMWARSSYLGAVFNLTSADHLYVNVSELSLVNFEESQTFFGLYKL
modifications: conjugated via SMCC to mouse anti-CD20 antibody
B3: FasL (P206R) (protein, UniProt P48023 130-281, looked up, variant P206R)
Tumor necrosis factor ligand …: QIGHPSPPPEKKELRKVAHLTGKSNSRSMPLEWEDTYGIVLLSGVKYKKGGLVINETGLYFVYSKVYFRGQSCNNLRLSHKVYMRNSKYPQDLVMMEGKMMSYCTTGQMWARSSYLGAVFNLTSADHLYVNVSELSLVNFEESQTFFGLYKL

test system: Burkitt lymphoma cells; assay: Dose response of FasL ligands on Burkitt lymphoma cells; format: cell-based; conditions: dose response over 1 μM to 1 nM, 96 well plate
Protocol: Dose response over a range of 1 μM to 1 nM is determined for each of the ligands.

Row | Molecule | rank order of effectiveness
1 | B1 | rank order of effectiveness is wild-type, conjugate and mutated FasL
2 | B2 | rank order of effectiveness is wild-type, conjugate and mutated FasL
3 | B3 | rank order of effectiveness is wild-type, conjugate and mutated FasL
